{"source": "the nanobody polyreactivity screen of Harvey et al. (2022)", "data": [{"experiment": "yeast display, Sf9 membrane polyspecificity reagent, FACS + sequencing; frameworks hold sequencing errors", "summary_of_the_method": "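In a synthetic yeast display library (Saccharomyces cerevisiae BJ5465), nanobody expression was induced with galactose for 36–48 hours. FACS gates were set low and high (top ~1%) using anti-HA fluorescence for expression and streptavidin fluorescence for binding of the Sf9 membrane reagent. Each polyreactivity label is drawn from the gate of origin.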", "values": [{"sequence": "QVQLVESGGGLVQAGGSLRLSCAASGSTFTNYAMGWYRQAPGKERELVAAIDRRDGTTYYADSVKGRFTISRDNAKNTVYLQMNSLKPEDTAVYYCAADRDYSADVPGYYYWGQGTQVTVSS", "polyreactivity (PSR sort gate)": "low polyreactivity"}, {"sequence": "QVQLVESWGGLVQAGGSLRLSCAASGSIFSDYAMGWYRQARGKERELVAAITQSGGSTYADSVKGRFTISRDNAKNTVYLQMNSLKPDDTAVYYCAADEVPGFGYPPYPWFDYWGQGTQVTVSS", "polyreactivity (PSR sort gate)": "low polyreactivity"}, {"sequence": "QVQLVESGGGLVQAGGSLRLSCAASGFTFTGYAIGWYRQAPGKERELVAAITSNTGGTYYADSVKGRFTISRDNAKNTVYLEMNSLKAEDTAVYYCAAGHSGGQVDTIFQGMDYWGQGTQVTVSS", "polyreactivity (PSR sort gate)": "low polyreactivity"}, {"sequence": "QVQLVESGGGLVQAGGSLRLICAASGSIFVGNAMCWYSQATGKERELVATITSGGSTYYADSVKGRFTISRDNAMNTVYLQMNSLKPEDTSVYNCAADYEFSKFDYVYWGQGTQVTVSS", "polyreactivity (PSR sort gate)": "low polyreactivity"}, {"sequence": "QDQHVESGGGLVQAGGSLRLSCSATGRIFTSYVMGWYRQPQGKERQLVAAITRSGGSTYYADSVKVRFTISRDTAKNTVYLQMKSLIPVDTAVYYCNALTRLQIGGEGGGYWGKGTQVTVSS", "polyreactivity (PSR sort gate)": "high polyreactivity"}, {"sequence": "QVQLVESGEGLVQARGSLRLSCAASGYTFLGYAMGWYRQAPGKERELVAAINRSGSSTYYADSVKGRFTISRDNAKNTVYLQMNSLKPEDTAVYYCNARSGNRYGPRYDYWGQGTKVTVSS", "polyreactivity (PSR sort gate)": "high polyreactivity"}, {"sequence": "QVQLVESGGGLVQAGGSLRLSCASSGFTFWYTMGWYRQAPGKEREFVAAITSGGGRTYYADSVKGRFTISRDNAKNTVYLQMNSLKPEETAVYYSAADSYYSWYDYWVQGTQVTVSS", "polyreactivity (PSR sort gate)": "high polyreactivity"}, {"sequence": "QVQLEESGGGLVQAGGSLRLSCAASGSIFLNYGMGWYRQAPGKERELVAGISNGGSTNYADSVKGRFTISRDNAKNTVYLQMNSLKPEDTAVYYCARPAYKSRGKRFDYWGQGTQVTVSS", "polyreactivity (PSR sort gate)": "low polyreactivity"}, {"sequence": "QVQLVESGGGLVQAGGSLRLSCAASGSIFVYNAMGRYRQAPGKEREYVAAITYSGGSTYYADSVKGRFTISRDNAKNTVDLQMNSLKPEDTAVYYCAADYFQHVPKYGYWGQGTQVNVSS", "polyreactivity (PSR sort gate)": "low polyreactivity"}, {"sequence": "QVQLVESWGGLVQAGGSLRLSCAASGSTFYWYTMGWYRQAPGKERELVARISSSGSTNYADSVKGRFTISRDNAKNTVYLQMKSLKPEDTAVYYCKKDWIYRGYDYWGQGTQVTVSS", "polyreactivity (PSR sort gate)": "high polyreactivity"}, {"sequence": "QVQLVESGGCLVQAGGSLRLSCYASGSIFVDKAMGWFRQPPGKERELVAAITDSGGRTYYADSVKGRFTISRDNAKNTVYLQKNSLKPEDTAVYYCAAGQSGYAGRRPAFGSWGQGTQVTVSS", "polyreactivity (PSR sort gate)": "low polyreactivity"}, {"sequence": "QVQLVESGGGFVQAGGSLRLSCAASGRIFKWYAMGWYIQAPGKERELVAAITSGGSTYYADSVKGRFTISRDNAKNTVYLQMNSLKPEDTAVYYCNTALTRWYNQYDYWGQGTLVTVSS", "polyreactivity (PSR sort gate)": "high polyreactivity"}, {"sequence": "QVQLVESGGGLVQAGGSLRLSCAASGRIFRANAMGWYRQAPGKERELVAAISTSGGSTTYADSVKGRFTISRDNAKNTVYLQMNCLKPEDTAVYYCAVDSWLKWRDKWVIRHDYWGQGTQVTVSS", "polyreactivity (PSR sort gate)": "high polyreactivity"}, {"sequence": "QVQLVESGGGLVQARGSLRLSCAASGSTLSPYVMGWYRQAPGKERELVATISRSGGRTYYADSVKGRFTISRDNAKNTVYLQMNSLKPEDTAVYYCAARTYYWGALIVSYDYWGQGTQGTVSS", "polyreactivity (PSR sort gate)": "low polyreactivity"}, {"sequence": "QVQLVESGGGLFQAGGSLRFSCAASGIIFSTNAMGWYRQAPGKERELVATITSSSGRTYYADSVKGRFTISRDNAKNTLYLQMNSLKPEDTAVYYCATGGVLIKGHYYWGQGTQVTVSS", "polyreactivity (PSR sort gate)": "low polyreactivity"}, {"sequence": "QVQLVESGGGLVQAGGSLRLSCAASGRTFFFNAMGWYRQAPGKERELVARISSSGRTNYADSVKGRFTISRDNAKNTVYLQMNSLKPEDTAVYYCAAGRYGLYKSDRSPEYGYWGQGTQVTVSS", "polyreactivity (PSR sort gate)": "high polyreactivity"}, {"sequence": "QVQLVESGGGLVQAGGSLRLSCAASGLTFYTNAMGSYRQAPGKERELLAAITSSGGRTYYADSVKGRFTISRDNAKYTVYLQMNSLKPEDTAVYYCAADARRPRIPEMYYWGLGTQVTVSS", "polyreactivity (PSR sort gate)": "high polyreactivity"}, {"sequence": "QVQLVESGGGLVQAGGSLRLSCAASGRIFASYAMGWYRQAPGKERELVAAISLRGGSTYYADSVKGRFTISRDNAKNTVYLQMNSLKPEDTAVYYCAAYHPHGFDYYRYYYWGQGTQVTVSS", "polyreactivity (PSR sort gate)": "high polyreactivity"}, {"sequence": "QVQLVESGGGLVQAGGSLRLSCAASGSIFVIYAMGWYRQAPGKERELVAAITYSGGSTYYADSVKGRFTISRDNAKNTVYLQMNSLKPEDTAVYYCAAVRDSRYYDYDYWGQGTQVTVSS", "polyreactivity (PSR sort gate)": "low polyreactivity"}, {"sequence": "QVQLVESGGGLVQAGGSLRLSCAASGSTFDYYAMGWNRQAPGKERDLVAASTSGSSTYYADSVKGRITISRDNAQNTVYLEMNSLKPEDTAVYYCAARSVYGSSFLSYGYWGQGTQLTVSS", "polyreactivity (PSR sort gate)": "high polyreactivity"}, {"sequence": "QGQLVESWGGLVQAGGSLRLSCAATRRTFLYYVMGWYRQAPGKETELVAAITNRGGSTYYADSVKGRFTISRDNAKNNVYVLMKSLKQEDTAVYYSNAPYGVYWSSTYYFWGQGTQVTVSS", "polyreactivity (PSR sort gate)": "high polyreactivity"}, {"sequence": "QVQHVESGGGLVQAGGSLRLSCAASGFTFAWNAMGWYRQAPGKERELVAAITWGDNSTYYADSVKGRFTISRDNAKNTVYLQMNSLKPEDTAVYYCAARVTHWYYLFGYDYWGQATQVTVSS", "polyreactivity (PSR sort gate)": "low polyreactivity"}, {"sequence": "QVQLVESGGGLVQAGGSLRLSCAASGSTFIRYAMGWYRQAPGKERELVAAITWRGGSTYYADSVKGRFTISRDNAKNTVYLQMNSLKPEDTAVYYCAARDRDTRNYYWGQGTQVTVSS", "polyreactivity (PSR sort gate)": "high polyreactivity"}, {"sequence": "QVQLVESGGGLVQAGGSLSLSCAASARTFYGSAKGWYRQAPGKERELVAAINYSGGRTYYADSVKGRFTISRDNAKNTVYLQMNSLKAEDTAGYYCAAPRASGYYWGQGTQVTVSS", "polyreactivity (PSR sort gate)": "high polyreactivity"}, {"sequence": "QVQLVESGGGLVQAGGSLRLSCAASGRIFGYYAMGWYRQAPGKEMELVARITWSGGDTYYADSVKGRFTISRDNAKNTVYLQMNSLKPEDTAVYYCAADYLDSTYGYVYGWDDYWGQGTQVTVSS", "polyreactivity (PSR sort gate)": "low polyreactivity"}, {"sequence": "QVQLVESGGGLVQAGGSLRLSCAASGTIFPGYTIGWYRQAPGKEREFVAAISRRGGSTYYADSVKGRFTISRDNAKNTVYLQMNSLKPEDTAVYYCPKVPDYRFEYWGQGTLVTVSS", "polyreactivity (PSR sort gate)": "high polyreactivity"}, {"sequence": "QVQLVESGGGLVQAGGSLRLSCAASGSIFYRNTMGWYRQAPGKERELVAAITYSGGSTYYADSVKGRFTISRDNAKNTVYLQMNSLKPEDTAVYYCAVTDFYSYLLRYDSWGQGTQVTVSS", "polyreactivity (PSR sort gate)": "low polyreactivity"}, {"sequence": "QVQLVESGGGLVQAGGSLRLSCAASGGTFRLYAMGWYRQAPGKERELVAAITGSSGGTYYADSVKGRFTISRDNAKNTVYLQMNSLKPEDTAVYYCAARSSYWGQGTQVTVSS", "polyreactivity (PSR sort gate)": "low polyreactivity"}, {"sequence": "QVQLVESGGGLVQAGGSLRLSCAASGRIFTFNAMGWYRQAPGKERELVAAIRRGGGRTYYADSVKGRFTISRDNAKNTVYLQMNSLKPEDTAVYYCAAPFYRQSLIEYDYWGQGTQVTVSS", "polyreactivity (PSR sort gate)": "high polyreactivity"}, {"sequence": "QLQLVESGGGLVQAGGSLRLSCAASGRTFSTYAMGWYRQAPGKEIELVAAISSGGGRTYYADSVKGRFTISRDNAKNTVYLQMNSLKQEDTAVYYCAADRYFRSRRSYEYWGQGTQVTVSS", "polyreactivity (PSR sort gate)": "low polyreactivity"}, {"sequence": "QVQLVESGGGLVQAAGSLRLSCAASGSIFIQYAMGWYRQAPGKERELVAAITRRGGRTYYADSVKGRFTISRDNAKNTVYLQLNSLKPEDTAVYYCNAVPIGQWAYDYWGQGTQVTVSS", "polyreactivity (PSR sort gate)": "high polyreactivity"}, {"sequence": "QVQLVESGGGLVQAGGSLRLSCAASGRTFTYYAMGWYRQAPGKERELVAAITSGGRTYYADSVKGRFTISRDNAKNTVYLQMKSLKPEDTAVYYCAARRIRDYYRSYDYWGQGTQVTVSS", "polyreactivity (PSR sort gate)": "high polyreactivity"}, {"sequence": "QVQLVESGGGLVQARGSLRLSCAASGRTFFNNAMGWYRQAPGKERELVAGISVTTGSTYYADSVKGRFTISRDNAKNTVYLQMNSLKPEDTAVYYCAARRKQYYAAYRYYYWGQGTQVTVSS", "polyreactivity (PSR sort gate)": "high polyreactivity"}, {"sequence": "QVQLVESGGGLVQAGGSLRLSCAPSGFTFRYYGMGWYRQAPGKERELVAAITRTGGSTYYADSVKGRFTISRDNAKYTVYLQMNSLKPEDTAVYFCGAGGSYAYVYWGQGTQVTVSS", "polyreactivity (PSR sort gate)": "high polyreactivity"}, {"sequence": "QVQLVESGGGLVQAGGSLRLSCAASGFIIAYYAMGWDRQAPGKERELVAAINGGGGSRSYADSVKGRFTISRDNAKNTVYLQMNSLKPEDTAVFYCAADGSDDEENDYWGQGTQVTVSS", "polyreactivity (PSR sort gate)": "high polyreactivity"}, {"sequence": "QVQLVESGGGLVQAGGSLRLSCAASGRTFYDYAMGWYRQAPGKERELVADITSGGGNTYYADSVKGRFTISRDNAKNTVYLQMNSLKPEDTAVYYCNADYDLYFSGWYDYWGQGTQVTVSS", "polyreactivity (PSR sort gate)": "low polyreactivity"}, {"sequence": "QVQLVESGGGLVQAGGSLRLSCAASGLIFKRNAMGWYRQAPGKERELVATISGSGGSTYYADSVKGRFTISRDNAKNTFYLQMNSLKPEDTAVYYCAAEASSVSYPYEYEYWGQGTQVTVSS", "polyreactivity (PSR sort gate)": "high polyreactivity"}, {"sequence": "QVQLVESGGGLVQAGGSLRLSCAASGSTFFGYTMGWYRQAPGKERELVAAITASDGSTYYADSVKGRFTISRDNAKNTVYLQMNSLKPEDTAVYYCNADYRLVRSFRLSSYTYIYDYWGQGTQVTVSS", "polyreactivity (PSR sort gate)": "low polyreactivity"}, {"sequence": "QVQLVESGGGIVQAGGSLRLSCDGSGSTFTYYAMGWYRQEPGKEWEFVAAISRRGGSTYYADSVKGRFTISRDNAKNTVYFQLNSLKPEDTAVSDCNVVIYSYGINGRYDYWGQGTQVTVSS", "polyreactivity (PSR sort gate)": "high polyreactivity"}, {"sequence": "QVQLVESVGGLVQAGGSLRLSCAASGSTFWTNAMGLYRQAPGKERELVATISKTTGRTYYADSVKGRFTISRDNAKNTVYLQMNSLKPEDTAVYYCAAEPYSWDTWVDYDYWGQGTQVTVSS", "polyreactivity (PSR sort gate)": "low polyreactivity"}, {"sequence": "QVQLVESGGGLVHAGGSLRLSCAASGFTFAGYAMGWYRQAPGKERELVAGIRSSGARTYYADSVKGRFTISRDNAKNTVYLQMNSLKPDDTAVYYCAKTDGFYGGYGYWGQCTQVTVSS", "polyreactivity (PSR sort gate)": "low polyreactivity"}, {"sequence": "QCQLVVSGGGLVQAGGSLRISCSASGSTFGVYSMGWYRQAPGKERELFATINSGGSTNYADSVKGRFTISRDNAKNTVYLQMNSLKPEDTAVYYCASGPFWQDFYVYEYDYWGQGTQVTVSS", "polyreactivity (PSR sort gate)": "low polyreactivity"}, {"sequence": "QVQLVESGGGLVQAGGSLRLSCAASGRTFSWNTMGWYRQAPGKEMELVATITWSGTSTYYADSVKGRFTISRDNAKNTDYLQMNSLKPEDTAVYYCAKRRLFPYTISRYDYWGQGTQVTVSS", "polyreactivity (PSR sort gate)": "high polyreactivity"}]}]}
